Measured values published in patent US20210301005A1.

Tests used:
[1] = biological target: human TGFβ1, mature receptor-binding domain (human) (UniProt P01137)
[2] = biological target: human TGFβ2, mature receptor-binding domain (human)
[3] = biological target: human TGFβ3, mature dimeric form (human) (UniProt P10600)
[4] = biological target: human TGFβ1, mature receptor-binding domain (human) (UniProt P01137); remark: listed apart in the source
[5] = biological target: human TGFβ2, mature receptor-binding domain (human); remark: listed apart in the source
[6] = biological target: human TGFβ3, mature dimeric form (human) (UniProt P10600); remark: listed apart in the source

Chain of Fc-LAP1 (P01137 30-278 limits assumed): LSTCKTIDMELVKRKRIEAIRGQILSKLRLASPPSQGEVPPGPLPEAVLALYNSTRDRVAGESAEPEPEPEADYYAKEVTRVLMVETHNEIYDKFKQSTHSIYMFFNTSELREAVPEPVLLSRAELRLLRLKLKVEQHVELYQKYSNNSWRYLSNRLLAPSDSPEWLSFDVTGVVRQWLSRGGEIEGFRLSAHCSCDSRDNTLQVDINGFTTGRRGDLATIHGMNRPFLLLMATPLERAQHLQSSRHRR
Chain of human TGFβ1, mature receptor-binding domain (human) (P01137 279-390 limits assumed): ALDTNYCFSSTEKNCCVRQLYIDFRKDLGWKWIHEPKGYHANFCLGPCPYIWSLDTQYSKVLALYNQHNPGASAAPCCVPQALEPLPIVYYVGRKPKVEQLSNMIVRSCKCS
Chain of human TGFβ2, mature receptor-binding domain (human) (P09858 303-414 limits assumed): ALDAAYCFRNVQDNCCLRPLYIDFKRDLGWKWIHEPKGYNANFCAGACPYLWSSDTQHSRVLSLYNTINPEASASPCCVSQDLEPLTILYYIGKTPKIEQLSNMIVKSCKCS
Chain of human TGFβ3, mature dimeric form (human) (P10600 301-412): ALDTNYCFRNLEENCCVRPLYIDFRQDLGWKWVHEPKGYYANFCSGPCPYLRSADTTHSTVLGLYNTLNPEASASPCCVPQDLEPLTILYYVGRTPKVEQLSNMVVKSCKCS

Work on “Fc-LAP1 (from UniProt P01137 30-278) (Fc fusion)” yielded an IC50 [1] of 96 nM, an IC50 [2] of 64 nM and an IC50 [3] of 43 nM. For the same substance, the IC50 (read off the curve) [4] was 0.1 nM, the IC50 (read off the curve) [5] was 0.07 nM and the IC50 (read off the curve) [6] was 0.04 nM.
